Assay [1] deals with human sodium taurocholate co-transporting polypeptide (NTCP/SLC10A1) (human) (UniProt Q14973). In words: cell-based or functional assay.
The subject of the next assay is HDV. Briefly: microbe, parasite or virus in culture. It counts as cell-based, hepatitis D virus (HDV). From the text:
FIG. 3 HBV/HDV infection assay.
Tested were conjugate compounds comprising a truncated variant of Myrcludex B (amino acids 2-21) conjugated with bile acids cholic acid (CA) and ursodeoxy cholic acid (UDCA). They were compared with a control peptide not containing a bile acid moiety, namely HBVpreS/(-11)-21^myr (Genotype B) and the two bile acids CA and UDCA alone.
FIG. 4 HBV/HDV infection assay.
Tested were conjugate compounds comprising a truncated variant of Myrcludex B (amino acids 2-21) conjugated with cholic acid (CA) and a cyclic peptide (also comprising amino acids 2-21) conjugated with ursodeoxy cholic acid (UDCA). They were compared with a control peptide not containing a bile acid moiety, namely HBVpreS/2-21^myr (Genotype B).
FIG. 5 HBV/HDV infection assay of compounds conjugated with bile acid monomers and dimers.
Tested were three compounds: two conjugated with ursodeoxy cholic acid (UDCA) and one with a dimer of ursodeoxy cholic acid (UDCA)2, wherein two comprise amino acids 2-21 of Myrcludex B in a linear form and one as cyclic peptide.
FIG. 7 Infection inhibition of bile acid conjugates with linear peptide sequences Reduction of HDV infection by various bile acid conjugates, control peptides, ursodeoxycholic acid and cholic acid in Huh7-hNTCP cells. The cells were pretreated with the substances for 30 minutes and then co-incubated with the substances and HDV overnight. An in-cell ELISA was carried out five days after infection (n=3).
Reduction of HDV infection by various bile acid conjugates and control peptides in Huh7-hNTCP cells. The cells were pretreated with the substances for 30 minutes and then co-incubated with the substances and HDV overnight. An in-cell ELISA was carried out five days after infection (n=3).
Reduction of HDV infection by a bile acid dimer peptide conjugate bile acid conjugates as compared to the monomeric bile acid conjugates and the control peptides in Huh7-hNTCP cells. The cells were pretreated with the substances for 30 minutes and then coincubated with the substances and HDV overnight. An in-cell ELISA was carried out five days after infection (n=3).
Example 3 HDAg In-Cell ELISA (Huh7-hNTCP
1st Antibody Mouse or rabbit anti HDAg (FD3A7) 1:3000
2nd Antibody: Goat-anti-mouse or goat-anti-rabbit peroxidase conjugated 1:5000
Grow and infect cells in white 96-well plates.
1) Fix cells with 50 μl 4% PFA at RT for 30 min
5) Incubate with 100 μl primary antibody (1:3000) diluted in blocking buffer at RT with shaking for 1 h
9) Incubate with 100 μl 2nd Antibody 1:5000 in blocking buffer at RT with shaking for 1 h.
11) Add 50 μl luminescence substrate (mix according to manufacturer's protocol) and measure at plate reader directly after pipetting.
(Enhanced luciferase protocol, 0.1 s measurement)

Assay [2] addresses T1, human sodium taurocholate co-transporting polypeptide (NTCP/SLC10A1) (human, UniProt Q14973 1-349).
T1 sequence: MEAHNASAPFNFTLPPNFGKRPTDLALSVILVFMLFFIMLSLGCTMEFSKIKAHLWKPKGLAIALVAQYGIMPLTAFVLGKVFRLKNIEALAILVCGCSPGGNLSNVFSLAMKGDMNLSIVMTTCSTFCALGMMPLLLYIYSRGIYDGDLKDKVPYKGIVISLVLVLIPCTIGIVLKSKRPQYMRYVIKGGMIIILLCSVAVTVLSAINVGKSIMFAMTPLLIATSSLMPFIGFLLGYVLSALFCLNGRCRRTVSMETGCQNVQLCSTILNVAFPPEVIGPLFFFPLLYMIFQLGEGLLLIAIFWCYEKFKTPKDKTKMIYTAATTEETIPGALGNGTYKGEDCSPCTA
Briefly: cell-based or functional assay.

Setting [3] is: HDV infection, Huh7-hNTCP cells, in-cell ELISA, FIGS. 3, 4 and 5 (genotype B sequence), read-out: IC50.
[4] abbreviates: experiments of FIGS. 7 and 9, Huh7-hNTCP cells pretreated 30 minutes, co-incubated with HDV overnight, in-cell ELISA five days after infection (n=3), read-out: IC 50.

Read-outs that look alike come from different tables or passages of the source. Square brackets hold non-standard residues; d marks the D form. Ends that are not written are not given here. Peptide text beside a SMILES is read from it. * marks the point of attachment. Ursodeoxycholyl = C[C@H](CCC(=O)*)[C@H]1CC[C@H]2[C@@H]3[C@@H](O)C[C@@H]4C[C@H](O)CC[C@]4(C)[C@H]3CC[C@]12C; Myristoyl = CCCCCCCCCCCCCC(=O)*

In assay [1], “HBVpreS/2-21myr-CA (genotype B) (peptide)” showed an IC50, inhibition of HDV infection of Huh7-hNTCP cells (HDAg in-cell ELISA) of 7.27 nM; an IC 50, inhibition of HDV infection of Huh7-hNTCP cells (in-cell ELISA, FIGS. 7 and 9) of 12.5 nM. For the molecule `CCCCCCCCCCCCCC(=O)NCC(=O)N[C@H](C(=O)N[C@@H](CC(N)=O)C(=O)N[C@@H](CC(C)C)C(=O)N[C@@H](CO)C(=O)N[C@H](C(=O)N1CCC[C@H]1C(=O)N[C@@H](CC(N)=O)C(=O)N1CCC[C@H]1C(=O)N[C@@H](CC(C)C)C(=O)NCC(=O)N[C@@H](Cc1ccccc1)C(=O)N[C@@H](Cc1ccccc1)C(=O)N1CCC[C@H]1C(=O)N[C@@H](CC(=O)O)C(=O)N[C@@H](Cc1c[nH]cn1)C(=O)N[C@@H](CCC(N)=O)C(=O)N[C@@H](CC(C)C)C(=O)N[C@@H](CC(=O)O)C(=O)N1CCC[C@H]1C(N)=O)C(C)C)[C@@H](C)O` [HBVpreS/2-21myr] (Myristoyl-GTNLSVPNPLGFFPDHQLDP-NH2; C-terminus assumed), the IC50 in the assay on HDV (setting [3]) was determined as 62.8 nM. On to “HBVpreS/2-21myr-UDCA (genotype B) (peptide)”, for which, in assay [1], the IC50, inhibition of HDV infection of Huh7-hNTCP cells (HDAg in-cell ELISA) turned out to be 8.45 nM; the IC 50, inhibition of HDV infection of Huh7-hNTCP cells (in-cell ELISA, FIGS. 7 and 9) came to 9.2 nM. Regarding HBVpreS/2-21myr (consensus) (peptide), the IC 50, inhibition of HDV infection of Huh7-hNTCP cells (in-cell ELISA, FIGS. 7 and 9) in assay [1] is 70.3 nM. As for “HBVpreS/2-21myr-(UDCA)2 (genotype B) (peptide)”, in assay [1], the IC50, inhibition of HDV infection of Huh7-hNTCP cells (HDAg in-cell ELISA) amounted to 3.55 nM; the IC 50, inhibition of HDV infection of Huh7-hNTCP cells (in-cell ELISA, FIGS. 7 and 9) worked out at 12.7 nM.

Consider MyrB-UDCA (peptide), for which the IC 50, inhibition of HDV infection of Huh7-hNTCP cells (in-cell ELISA, FIGS. 7 and 9) in assay [1] worked out at 1.5 nM.

With `CCCCCCCCCCCCCC(=O)NCC(=O)N[C@H](C(=O)N[C@@H](CC(N)=O)C(=O)N[C@@H](CC(C)C)C(=O)N[C@@H](CO)C(=O)N[C@H](C(=O)N1CCC[C@H]1C(=O)N[C@@H](CC(N)=O)C(=O)N1CCC[C@H]1C(=O)N[C@@H](CC(C)C)C(=O)NCC(=O)N[C@@H](Cc1ccccc1)C(=O)N[C@@H](Cc1ccccc1)C(=O)N1CCC[C@H]1C(=O)N[C@@H](CC(=O)O)C(=O)N[C@@H](Cc1c[nH]cn1)C(=O)N[C@@H](CCC(N)=O)C(=O)N[C@@H](CC(C)C)C(=O)N[C@@H](CC(=O)O)C(=O)N1CCC[C@H]1C(=O)N[C@H](Cc1ccc(O)cc1)C(=O)N[C@@H](CCCCNC(=O)CC[C@@H](C)[C@H]1CC[C@H]2[C@@H]3[C@@H](O)C[C@@H]4C[C@H](O)CC[C@]4(C)[C@H]3CC[C@]12C)C(N)=O)C(C)C)[C@@H](C)O` [HBVpreS/2-21myr-UDCA] (Myristoyl-GTNLSVPNPLGFFPDHQLDP[dY]K(Ursodeoxycholyl)-NH2), the IC50 in the assay with HDV (setting [4]) was 9.2 nM.

As for `C[C@H](CCC(=O)O)[C@H]1CC[C@H]2[C@@H]3[C@H](O)C[C@@H]4C[C@H](O)CC[C@]4(C)[C@H]3C[C@H](O)[C@]12C` [CA, cholic acid], in the assay with HDV (Hepatitis delta virus), the IC50 was 115000 nM. “HBVpreS/2-21myr-LCA (genotype B) (peptide)” yielded an IC 50, inhibition of HDV infection of Huh7-hNTCP cells (in-cell ELISA, FIGS. 7 and 9) in assay [1] of 7.5 nM. Take `C[C@H](CCC(=O)O)[C@H]1CC[C@H]2[C@@H]3[C@@H](O)C[C@@H]4C[C@H](O)CC[C@]4(C)[C@H]3CC[C@]12C` [UDCA, ursodeoxycholic acid]: the IC50 in the assay with HDV (setting [3]) and with HDV (setting [4]) was 79000 nM in each case. Myristoyl-GTNLSVPNPLGFFPDHQLDP [HBVpreS/2-21myr (Genotype B)]: in assay [2], the “IC50, inhibition of HDV infection of Huh7-hNTCP cells (HDAg in-cell ELISA)” value amounted to 62.8 nM.

For the origin of these results see patent US20230211003A1, “CONJUGATE COMPOUNDS FOR PREVENTING AND/OR TREATING HBV AND/OR HDV INFECTIONS, LIVER DISEASES ANDFOR TARGETING NTCP” (priority 2019, published 2023).
